Values quoted from earlier work, collected in patent US9817004B2, “Development and use of cysteine-labeled fluorescent probes of unbound analytes” (priority 2008, dated 2017).
Numbering of substitutions follows the chain as printed.

B1: Thr81Cys: I-FABP mutant Thr81Cys labeled with acrylodan (Kleinfeld '714) (protein, UniProt P02693 2-132, looked up, variant T81C)
Fatty acid-binding protein, …: AFDGTWKVDRNENYEKFMEKMGINVVKRKLGAHDNLKLTITQEGNKFTVKESSNFRNIDVVFELGVDFAYSLADGTELTGCWTMEGNKLVGKFKRVDNGKELIAVREISGNELIQTYTYEGVEAKRIFKKE
modifications: acrylodan label
B2: Thr83Cys: I-FABP mutant Thr83Cys labeled with acrylodan (Kleinfeld '714) (protein, UniProt P02693 2-132, looked up, variant T83C)
Fatty acid-binding protein, …: B1 Fatty acid-binding protein, … with C81T, T83C
modifications: acrylodan label

Details: I-FABP mutants labeled with acrylodan; from U.S. Pat. No. 5,470,714; cited from earlier work

Molecule | fluorescence response to FFAu binding
B1 | unresponsive to FFAu binding
B2 | unresponsive to FFAu binding
